Data from patent publication US20070087400A1, “Covalent tethering of functional groups to proteins and substrates therefor” (priority 2004, published 2007).
Residue numbers refer to the chain shown, from its start. Numbers in names are those of the source.

Columns and labels:
[1] = Precipitation of DhaA proteins with (NH4)2SO4; format: physicochemical; details: 2 hours, 4° C.
Description: Aliquots of the supernatant obtained from E. coli expressing DhaA (WT or one of the mutants) were treated with increasing concentrations of (NH4)2SO4. The proteins were exposed to each (NH4)2SO4 concentration for 2 hours (4° C.), pelleted by centrifugation, dialyzed overnight against buffer A, and resolved on SDS-PAGE.

[2] = Hydrolysis of CCF2 (FRET-based substrate) by BlaZ; format: biochemical, Staphylococcus aureus PC1
Excerpt: In CCF2, the cephalosporin core links a 7-hydroxycoumarin to a fluorescein. In the intact molecule, excitation of the coumarin (Eex-409 nm) results in FRET to the fluorescein, which emits green light (Eem-520 nm). Cleavage of CCF2 by β-lactamase results in spatial separation of the two dyes, disrupting FRET such that excitation of coumarin now gives rise to blue fluorescence (Eex-447 nm). CCF2 was purchased from Aurora Biosciences Corporation (San Diego, Calif.). Reduction of the FRET signal and an increase in blue fluorescence were measured on Fluorescence Multi-well Plate Reader CytoFluorI (PerSeptive Biosystems, Framingham, Mass., USA).

[3] = Hydrolysis of FAP by BlaZ (loss of absorbance at 344 nm); format: biochemical, Staphylococcus aureus PC1; details: 25° C., pH 6.8, up to 60 minutes
Description: The chromogenic substrate 6-β-[(Furylacryloyl)amido]penicillanic acid triethylamine salt (FAP) was purchased from Calbiochem (La Jolla, Calif.). […] All assays were performed at 25° C. in 0.1 M potassium phosphate buffer at pH 6.8.

[4] = Covalent alkyl-enzyme formation in whole cells; details: 15 μM substrate, 4° C., approximately 18 hours
[5] = In vitro covalent alkyl-enzyme formation in crude lysates; details: 25 μM substrate, 2 hours at room temperature
[6] = DhaA capture using immobilized biotin chloroalkane substrates (ELISA-type); format: binding
Description: DhaA capture using immobilized chloroalkane substrates. […] Reactions between immobilized substrate and mutant DhaAs were performed using purified GST-DhaA-Flag fusions. Various concentrations of protein (100 μL; diluted in PBSTB) were incubated with immobilized substrate for various times at 25° C., and the reactions were stopped by emptying the plates and washing 4× with PBST. To detect bound DhaA, 100 μL anti-GST-HRP (Amersham) was added to each well at a 1:10,000 dilution (in PBSTB) and the plates incubated for 1 hour at 25° C.

[7] = Protein immobilization assay (substrate capture using immobilized DhaA); details: biotin-PEG4-14-Cl substrate
[8] = Thermostability analysis (residual activity by FP assay); format: physicochemical; details: 60 minute incubations
Description: Thermostability analysis. The thermostability profiles of the DhaA mutants were determined by measuring the residual activity of the purified proteins following 15, 30 or 60 minute incubations at 4, 22, 30, 37, 42, 50 or 60° C. The FP assay was performed at room temperature (about 25° C.). […] For each clone, the labeling rate (slope of the linear range) was calculated for each condition. The rate observed following a 15 minute incubation at 4° C. was arbitrarily assigned as 100% activity. The residual activity (%) was calculated for each condition. To determine stability, for each incubation time, the % of residual activity was plotted against the incubation temperatures. To calculate half-life, for each incubation temperature, the % of residual activity was plotted against the incubation time. The time where 50% activity was lost was extrapolated from the graph.

[9] = In vivo labeling of DhaA mutants expressed in CHO-K1 cells (cell-to-gel analysis); format: cell-based; details: substrate concentration 5 μM
Description: Cell-to-gel analysis. […] Proteins (2-10 μl/lane) were resolved on SDS-PAGE (4-20% gradient gels).

B1: DhaA.H272Q: DhaA mutant with H272Q substitution (protein, UniProt P0A3G2 1-293, looked up, variant H272Q)
Haloalkane dehalogenase: MSEIGTGFPFDPHYVEVLGERMHYVDVGPRDGTPVLFLHGNPTSSYLWRNIIPHVAPSHRCIAPDLIGMGKSDKPDLDYFFDDHVRYLDAFIEALGLEEVVLVIHDWGSALGFHWAKRNPERVKGIACMEFIRPIPTWDEWPEFARETFQAFRTADVGRELIIDQNAFIEGALPKCVVRPLTEVEMDHYREPFLKPVDREPLWRFPNELPIAGEPANIVALVEAYMNWLHQSPVPKLLFWGTPGVLIPPAEAARLAESLPNCKTVDIGPGLQYLQEDNPDLIGSEIARWLPAL
In the case of B1, the “(NH4)2SO4 concentration at which the protein was precipitated” value (from here on “(NH4)2SO4 concentration”) [1] is reported as 10%.

B2: DhaA.H272G: DhaA mutant with H272G substitution (protein, UniProt P0A3G2 1-293, looked up, variant H272G)
Haloalkane dehalogenase: B1 Haloalkane dehalogenase with Q272G
With B2 the “(NH4)2SO4 concentration” value [1] was 10%.

B3: DhaA.H272A: DhaA mutant with H272A substitution (protein, UniProt P0A3G2 1-293, looked up, variant H272A)
Haloalkane dehalogenase: B1 Haloalkane dehalogenase with Q272A
For B3, the “(NH4)2SO4 concentration” value [1] was 10%.

B4: BlaZ.N170Q (protein, UniProt P00807 25-281, looked up, variant N170Q)
Beta-lactamase: KELNDLEKKYNAHIGVYALDTKSGKEVKFNSDKRFAYASTSKAINSAILLEQVPYNKLNKKVHINKDDIVAYSPILEKYVGKDITLKALIEASMTYSDNTANNKIIKEIGGIKKVKQRLKELGDKVTNPVRYEIELNYYSPKSKKDTSTPAAFGKTLNKLIANGKLSKEQKKFLLDLMLNNKSGDTLIKDGVPKDYKVADKSGQAITYASRNDVAFVYPKGQSEPIVLVIFTNKDNKSDKPNDKLISETAKSVMKEF
For B4, the “hydrolysis of CCF2” value [2] was “reduced the ability” and the “hydrolysis of FAP” value [3] was “could not be detected”.

B5: DhaA.H272F: DhaA mutant, catalytic His272 replaced with Phe (protein, UniProt P0A3G2 1-293, looked up, variant H272F)
Haloalkane dehalogenase: B1 Haloalkane dehalogenase with Q272F
With B5 the “formation of covalent alkyl-enzyme intermediate in whole cells” value [4] was “capable of generating a covalent alkyl-enzyme intermediate” and the “formation of alkyl-enzyme covalent intermediate in crude lysates” value [5] was “very efficient at producing this intermediate”.

B6: DhaA.WT: wild-type Rhodococcus rhodochrous dehalogenase (DhaA) (protein, UniProt P0A3G2 1-293, looked up)
Haloalkane dehalogenase: B1 Haloalkane dehalogenase with Q272H
With B6 the “formation of alkyl-enzyme covalent intermediate in crude lysates” value [5] was “No such product could be detected”.

B7: DhaA.H272F YL: DhaA.H272F based mutant with Y273L (protein, UniProt P0A3G2 1-293, looked up, variant H272F Y273L)
Haloalkane dehalogenase: B1 Haloalkane dehalogenase with Q272F, Y273L
With B7 the “reaction with immobilized biotin-PEG4-14-Cl” value [6] was “react most efficiently” and the “activity compared to parental clones” value [7] was “significantly improved”.

B8: DhaA.H272F YM: DhaA.H272F based mutant with Y273M (protein, UniProt P0A3G2 1-293, looked up, variant H272F Y273M)
Haloalkane dehalogenase: B1 Haloalkane dehalogenase with Q272F, Y273M
With B8 the “reaction with immobilized biotin-PEG4-14-Cl” value [6] was “react most efficiently” and the “activity compared to parental clones” value [7] was “significantly improved”.

B9: DhaA.H272F YC: DhaA.H272F based mutant with Y273C (protein, UniProt P0A3G2 1-293, looked up, variant H272F Y273C)
Haloalkane dehalogenase: B1 Haloalkane dehalogenase with Q272F, Y273C
With B9 the “activity compared to parental clones” value [7] was “significantly improved”.

B10: DhaA.H272F H11: first generation DhaA.H272F mutant with K175M and C176G (protein, UniProt P0A3G2 1-293, looked up, variant K175M C176G H272F)
Haloalkane dehalogenase: B1 Haloalkane dehalogenase with K175M, C176G, Q272F
For B10, the “reaction with all biotin substrates tested” value ([6]; biotin-14-Cl, biotin-X-14-Cl, biotin-PEG4-14-Cl) was “reacted poorly”, the “retained significant labeling activity following incubation as high as” value [8] was ≤ 50 °C and the “in vivo labeling performance compared to parent DhaA.H272F” value [9] was “superior performance characteristics”.
